Experimental findings from EP4785956A2 (CHUGAI SEIYAKU KABUSHIKI KAISHA, dated 2026) are described below.

Assay [1] addresses T1, recombinant human C5 (human, UniProt P01031 20-1676).
T1 construct: The same entry is used here for C5 in normal human serum in the functional rows; also called hC5; rhC5
The assay can be described thus: SPR (BIACORE T200), antibody captured by ProA/G, recombinant human C5 injected, 37 degrees C, pH5.8; pH 5.8.

Assay [2] addresses T1, recombinant human C5. The assay can be described thus: SPR (BIACORE T200), antibody captured by ProA/G, recombinant human C5 injected, 37 degrees C, pH7.4; pH 7.4. (In SPR one partner is held on a chip, and binding of the other changes the refractive index at the surface.)
Assay [3] has as its target T2, recombinant cynomolgus monkey C5 (cynomolgus monkey, UniProt P01031 19-1676 (human entry), limits assumed).
T2 construct: also called cynoC5
T2 chain: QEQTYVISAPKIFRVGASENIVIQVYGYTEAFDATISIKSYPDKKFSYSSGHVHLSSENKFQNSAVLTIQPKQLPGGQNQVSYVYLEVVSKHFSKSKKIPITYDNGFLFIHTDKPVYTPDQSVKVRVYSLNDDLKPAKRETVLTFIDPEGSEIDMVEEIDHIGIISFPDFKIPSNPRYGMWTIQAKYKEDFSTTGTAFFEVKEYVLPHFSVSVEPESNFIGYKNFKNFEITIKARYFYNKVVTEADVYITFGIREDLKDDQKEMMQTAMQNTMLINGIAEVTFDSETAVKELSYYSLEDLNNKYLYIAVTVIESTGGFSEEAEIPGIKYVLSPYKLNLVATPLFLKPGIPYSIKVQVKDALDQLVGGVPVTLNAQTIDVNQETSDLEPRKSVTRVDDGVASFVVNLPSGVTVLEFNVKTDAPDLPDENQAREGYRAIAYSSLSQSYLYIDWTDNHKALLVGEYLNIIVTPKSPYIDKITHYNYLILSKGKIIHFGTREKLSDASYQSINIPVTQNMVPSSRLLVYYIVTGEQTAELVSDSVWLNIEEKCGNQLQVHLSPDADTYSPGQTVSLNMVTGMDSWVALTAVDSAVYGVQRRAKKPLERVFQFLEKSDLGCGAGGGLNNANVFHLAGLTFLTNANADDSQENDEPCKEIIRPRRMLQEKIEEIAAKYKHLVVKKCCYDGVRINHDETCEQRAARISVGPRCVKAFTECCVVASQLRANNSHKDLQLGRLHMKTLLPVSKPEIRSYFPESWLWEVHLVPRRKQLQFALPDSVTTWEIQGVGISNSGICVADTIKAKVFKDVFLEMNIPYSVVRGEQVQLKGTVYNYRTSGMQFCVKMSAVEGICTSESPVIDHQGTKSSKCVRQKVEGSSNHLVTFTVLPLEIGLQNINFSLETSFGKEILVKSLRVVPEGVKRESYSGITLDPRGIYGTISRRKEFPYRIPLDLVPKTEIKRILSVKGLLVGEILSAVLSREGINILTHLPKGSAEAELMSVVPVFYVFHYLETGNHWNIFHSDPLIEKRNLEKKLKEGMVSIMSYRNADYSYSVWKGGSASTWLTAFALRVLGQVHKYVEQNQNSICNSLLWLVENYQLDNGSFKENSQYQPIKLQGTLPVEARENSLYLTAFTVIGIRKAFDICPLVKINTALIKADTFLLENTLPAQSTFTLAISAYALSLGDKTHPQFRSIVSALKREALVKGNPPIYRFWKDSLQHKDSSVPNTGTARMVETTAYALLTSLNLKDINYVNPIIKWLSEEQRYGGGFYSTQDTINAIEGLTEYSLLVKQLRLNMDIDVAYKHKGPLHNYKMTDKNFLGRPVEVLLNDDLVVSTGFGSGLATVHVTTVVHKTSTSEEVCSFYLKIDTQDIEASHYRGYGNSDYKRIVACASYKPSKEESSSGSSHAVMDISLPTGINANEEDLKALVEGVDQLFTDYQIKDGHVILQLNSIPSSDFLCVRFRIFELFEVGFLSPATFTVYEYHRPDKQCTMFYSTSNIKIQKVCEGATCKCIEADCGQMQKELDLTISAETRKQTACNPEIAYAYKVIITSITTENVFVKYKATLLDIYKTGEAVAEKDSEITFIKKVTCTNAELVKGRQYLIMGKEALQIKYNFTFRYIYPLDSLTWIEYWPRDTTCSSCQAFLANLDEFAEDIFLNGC
The assay can be described thus: SPR (BIACORE T200), antibody captured by ProA/G, recombinant cynoC5 injected, 37 degrees C, pH7.4.

B1: CFA0501 (antibody, V domains shown)
VH: QSVEESGGRLVTPGTPLTLTCTASGFSLSSYYMNWVRQAPGKGLEWIGMIYGSGATYYASWAKGRFTISKTSSTTVDLKMTSLTTEDTATYFCARQIYSGDNNDNFWGPGTLVTVSS
VL: AYDMTQTPASVEVAVGGTVTINCQASESISNWLAWYQQKPGQRPKLLIYRASTLASGVSSRFKGSGSGTQFTLTISGVECDDAATYYCQQDYSSSNVDNTFGGGTKVVVE
What is called koff is a measure of how fast the partners let go of each other. Usually kon stands for a measure of how fast the partners come together. As to B1, the koff was 0.0262 s⁻¹ with recombinant human C5 [1], 0.00169 s⁻¹ with recombinant human C5 [2] and 0.00156 s⁻¹ in assay [3]. Besides, the kon in the assay with recombinant human C5 [1] was found to be 150000 M⁻¹ s⁻¹; with recombinant human C5 [2], 474000 M⁻¹ s⁻¹; in assay [3], 266000 M⁻¹ s⁻¹.

B2: CFA0538 (antibody, V domains shown)
VH: QSVEESGGRLVTPGTPLTLTCTASGFSLSSYYMNWVRQAPGKGLEWIGMIYGSGATYYASWAKGRFTISKTSSTTVDLKMTSLTTEDTATYFCARQIYSGDNNDNFWGPGTLVTVSS
VL: AYDMTQTPASVEVAVGGTVTINCQASESISNWLAWYQQKPGQRPKLLIYRASTLASGVSSRFKGSGSGTQFTLTISGVECDDAATYYCQQDYSSSNVDNTFGGGTTVVVE
For B2, the koff in the assay with recombinant human C5 [1] is 0.0301 s⁻¹; with recombinant human C5 [2], 0.00185 s⁻¹; in assay [3], 0.00166 s⁻¹. For the same molecule, the figures for the kon (with recombinant human C5 [1]; with recombinant human C5 [2]; in assay [3]) were 122000 M⁻¹ s⁻¹, 473000 M⁻¹ s⁻¹ and 305000 M⁻¹ s⁻¹, respectively.

B3: CFA0307 (antibody, V domains shown)
VH: QSLEESGGGLVKPGASLTLTCKASGIDFSNFYYICWVRQAPGKGLDLIACIYTVSGYTYYASWAKGRLTISKTSSTTVTLQMTSLTAADTATYFCARDLHAGITNLWGPGTLVTVSS
VL: AIEMTQTPFSVSAAVGGTVTIKCQASQNIYSNLAWYQQKPGQRPKLLIYGASNLESGVPSRFKGSGSGTEYTLTISDLECADAATYYCLQGYSYSNVDDAFGGGTEVVVK
Regarding B3, the koff with recombinant human C5 [1] amounted to 0.0334 s⁻¹; in the assay with recombinant human C5 [2], 0.00263 s⁻¹; in assay [3], 0.00223 s⁻¹. For the same molecule, the values for the kon (in the assay with recombinant human C5 [1]; in the assay with recombinant human C5 [2]; in assay [3]) were 204000 M⁻¹ s⁻¹, 324000 M⁻¹ s⁻¹ and 290000 M⁻¹ s⁻¹, respectively.

B4: CFA0341 (antibody, V domains shown)
VH: QSVEESGGRLVTPGTPLTLTCTVSGIDLSSYTMGWVRQAPGKGLECIGYIHSFGSTYYASWAKGRFTISKTSTTVDLEITSPTTEDTATYFCARDVGGSSGWDLWGQGTLVTVSS
VL: DVVMTQTPSSVSAAVGGTVTIKCQASENIYSNLAWYQQKPGQPPKRLIYDASDLASGVPSRFSGSGYGTQFTLTISGVQCEDAATYYCQANYDSTSSSFGNVFGGGTEVVVK
Consider B4, for which, in the assay with recombinant human C5 [1], the koff was found to be 7.39e-05 s⁻¹ and the kon turned out to be 1.24e+06 M⁻¹ s⁻¹. In the assay with recombinant human C5 [2], the koff was 9.77e-05 s⁻¹ and the kon is 628000 M⁻¹ s⁻¹.

B5: CFA0666 (antibody, V domains shown)
VH: QSVEESGGRLVTPGTPLTLTCTVSGFSLSTYAMGWVRQAPGKGLEWIGTIDTGDNSFYANWAKGRFTISKTSTTVDLKITSPTAEDTATYFCARNDGSVYNLFNLWGPGTLVTVSS
VL: DVVMTQTPASVSAAVGGTVTIKCQASENIYSALSWYQQKPGLRPRLLIYYASTLASGVPSRFKGSRSGTEFTLTISDLECADAATYYCQQYYDINSVDNTFGGGTKVVVE
For the molecule B5, the off-rate (koff) with recombinant human C5 [1] worked out at 0.00939 s⁻¹; with recombinant human C5 [2], 0.000626 s⁻¹; in assay [3], 0.000493 s⁻¹. Besides, the kon came to 282000 M⁻¹ s⁻¹ with recombinant human C5 [1], 365000 M⁻¹ s⁻¹ with recombinant human C5 [2] and 314000 M⁻¹ s⁻¹ in assay [3].

B6: CFA0675 (antibody, V domains shown)
VH: QSVEESGGRLVTPGTPLTLTCTVSGFSLSTYAMGWVRQAPGKGLEWIGTIDTGDNSFYANWAKGRFTISRTSTTVDLKITSPTAEDTATYFCARNDGSVYNLFNLWGPGTLVTVSS
VL: DVVMTQTPASVSAAVGGTVTIKCQASENIYSALSWYQQKPGLRPRLLIYYASTLASGVPSRFKGSRSGTEFTLTISDLECADAASYYCQQYYDINSVDNTFGGGTKVVVE
As to B6, the koff with recombinant human C5 [1] was 0.00661 s⁻¹; with recombinant human C5 [2], 0.000412 s⁻¹; in assay [3], 0.000378 s⁻¹. Also, the figures for the kon (with recombinant human C5 [1]; with recombinant human C5 [2]; in assay [3]) were 389000 M⁻¹ s⁻¹, 383000 M⁻¹ s⁻¹ and 294000 M⁻¹ s⁻¹, respectively.

B7: CFA0330 (antibody, V domains shown)
VH: QSLEESGGDLVEPGASLTLTCTASGFSWNSGYDMCWVRQAPGKGLEWIACIYTGSSANTAYANWAKGRFTISKTSSTTVTLQMTGLTAADTATYFCARHDDYFFDLWGPGTLVTVSS
VL: DVVMTQTPASVSESVGGTVTINCQASQSIGNNLAWYQQKPGQPPKLLIYDASNLASGVPSRFKGSRSGTEPTLTNTLTISGVQCADVATYYCQSGWYGNSYVAAFGGGTEVVVKR
As for B7, the koff with recombinant human C5 [1] is 0.000224 s⁻¹; with recombinant human C5 [2], 0.000202 s⁻¹. Also, the kon in the assay with recombinant human C5 [1] came to 1.22e+06 M⁻¹ s⁻¹; in the assay with recombinant human C5 [2], 1.66e+06 M⁻¹ s⁻¹.

B8: CFA0305 (antibody, V domains shown)
VH: QSLEESGGDLVKPGASLAVTCTASGFSSSSSYYMCWVRQAPGKGLEWIGCIYTGSGATYYASWAKGRFTISKTSSTTVTLQMTSLTVADTATYFCASDGGYVTPTHAMYLWGPGTLVTVSS
VL: DVVMTQTPASVSAAVGGTVTIKCQASQNIGSDLAWYQQKPGQPPRLLIYGASKLASGVSSRFSGSGSGKEFTLTISDLECADAVTYYCQCTFVGSSYGNAFGGGTEVVVK
On to B8, for which the koff is 0.0183 s⁻¹ in the assay with recombinant human C5 [1], 0.000589 s⁻¹ with recombinant human C5 [2] and 0.00067 s⁻¹ in assay [3]. Besides, the kon in the assay with recombinant human C5 [1] turned out to be 42700 M⁻¹ s⁻¹; with recombinant human C5 [2], 38200 M⁻¹ s⁻¹; in assay [3], 12100 M⁻¹ s⁻¹.

B9: CFA0366 (antibody, V domains shown)
VH: QSLEESGGDLVKPGASLSLTCTAAGLDFSSSYYMCWVRQAPGKGLEWIACIYAGSSGIIYYANWAKGRFTISRPSSTTVTLQMTSLTAADTATYFCATYPTYGDGGHAFNLWGPGTLVTVSS
VL: AQVLTQTPSSVSAAVGGTVTINCQSSQSVYSSDYLSWYQQKPGQPPKLLIYEASKLASGVPPRFSGSGSGTQFTLTISGVQCDDAATYYCQGTYYSSGWYFAFGGGTEVVVK
Regarding B9, the results for the koff (with recombinant human C5 [1]; with recombinant human C5 [2]; in assay [3]) were 0.0703 s⁻¹, 0.00934 s⁻¹ and 0.00904 s⁻¹, respectively. The kon with recombinant human C5 [1] turned out to be 935000 M⁻¹ s⁻¹; in the assay with recombinant human C5 [2], 1.04e+06 M⁻¹ s⁻¹; in assay [3], 504000 M⁻¹ s⁻¹.

B10: CFA0672 (antibody, V domains shown)
VH: QSVEESGGRLVTPGTPLTLTCTASGFSLSGNAINWVRQAPGKGLEWIGCIYTGSDTTYYATWAKGRFTISKTSTTVDLKIASPTTEDTATYFCARGSGLWGPGTLVTVSS
VL: DVVMTQTPASVSAPVGGTVTIKCQASQNIYSLLAWYQQKPGQPPKLLIYHTSDLASGVPSRFRGSGSGTEFTLTISDLECADAATYYCQCTAYGSSDVGGTFGGGTTVVVE
Regarding B10, the koff in the assay with recombinant human C5 [1] stood at 0.00978 s⁻¹; with recombinant human C5 [2] it was 0.000183 s⁻¹; in assay [3], 0.00185 s⁻¹. In addition, the kon amounted to 71100 M⁻¹ s⁻¹ with recombinant human C5 [1], 523000 M⁻¹ s⁻¹ with recombinant human C5 [2] and 641000 M⁻¹ s⁻¹ in assay [3].

B11: CFA0599 (antibody, V domains shown)
VH: QSVEESGGRLVTPGTPLTLTCTVSGLSLSDNTMTWVRQAPGKGLEWIGIISFGGDAYYASWAKGRFPISKTSTTVDLRITSPTTEDTATYFCARVGAGNIFWYFDLWGPGTLVTVSS
VL: AYDMTQTPASVEVSVGGTVTIKCQASESIYSALAWYQQKPGQPPKLLIYSASTLASGVPSRFKGSGSGTEYTLTISDLECADAATYYCQQYYSSTNVHNSFGGGTTVVVE
Regarding B11, the koff came to 0.0373 s⁻¹ in the assay with recombinant human C5 [1], 0.00281 s⁻¹ with recombinant human C5 [2] and 0.00235 s⁻¹ in assay [3]. Moreover, the kon in the assay with recombinant human C5 [1] was found to be 454000 M⁻¹ s⁻¹; with recombinant human C5 [2], 474000 M⁻¹ s⁻¹; in assay [3], 542000 M⁻¹ s⁻¹.
